Experimental data as given in article PMC5437283.

Legend:
Details in all cases: remark: other sources report otherwise
[1] = biological target: T1, wildtype pneumolysin (PLYWT) (Streptococcus pneumoniae), P0C2J9; assay: electron cryo-tomography with subtomogram averaging; pores: preformed cholesterol-containing liposomes incubated with PLY (1 mg/ml) at 37°C for 30-180 min; subtomogram average at 27 Å
T1 chain: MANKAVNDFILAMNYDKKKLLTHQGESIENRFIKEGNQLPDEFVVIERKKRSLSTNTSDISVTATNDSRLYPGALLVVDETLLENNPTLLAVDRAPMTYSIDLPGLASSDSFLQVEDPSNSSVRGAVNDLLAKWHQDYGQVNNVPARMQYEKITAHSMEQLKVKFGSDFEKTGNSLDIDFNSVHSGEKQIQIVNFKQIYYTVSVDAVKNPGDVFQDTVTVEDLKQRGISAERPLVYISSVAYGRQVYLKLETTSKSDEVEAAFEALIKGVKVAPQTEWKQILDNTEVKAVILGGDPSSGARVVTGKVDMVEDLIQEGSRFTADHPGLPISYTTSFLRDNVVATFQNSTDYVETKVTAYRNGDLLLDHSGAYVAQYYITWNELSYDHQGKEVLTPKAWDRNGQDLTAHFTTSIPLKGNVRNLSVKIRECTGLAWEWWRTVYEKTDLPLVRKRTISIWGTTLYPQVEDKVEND

[2] = biological target: T1, wildtype pneumolysin (PLYWT) …; assay: electron cryo-tomography with subtomogram averaging; prepores: preformed cholesterol-containing liposomes incubated with PLY (1 mg/ml) at room temperature for 30 min; subtomogram average at 22 Å
[3] = biological target: T1, wildtype pneumolysin (PLYWT) …; assay: cryo-EM structure; single-particle cryoEM of PLY pore complexes formed on DOPC/cholesterol liposomes (37°C, 30 min), solubilised with 0.56% Cymal-6 and exchanged into amphipol A8-35; 50 mM Tris-HCl pH 7.0, 150 mM NaCl, 5 mM β-mercaptoethanol; 42-fold symmetry, 4.5 Å

B1: wildtype pneumolysin (PLYWT), P0C2J9 1-471 (natural protein)
chain: MANKAVNDFILAMNYDKKKLLTHQGESIENRFIKEGNQLPDEFVVIERKKRSLSTNTSDISVTATNDSRLYPGALLVVDETLLENNPTLLAVDRAPMTYSIDLPGLASSDSFLQVEDPSNSSVRGAVNDLLAKWHQDYGQVNNVPARMQYEKITAHSMEQLKVKFGSDFEKTGNSLDIDFNSVHSGEKQIQIVNFKQIYYTVSVDAVKNPGDVFQDTVTVEDLKQRGISAERPLVYISSVAYGRQVYLKLETTSKSDEVEAAFEALIKGVKVAPQTEWKQILDNTEVKAVILGGDPSSGARVVTGKVDMVEDLIQEGSRFTADHPGLPISYTTSFLRDNVVATFQNSTDYVETKVTAYRNGDLLLDHSGAYVAQYYITWNELSYDHQGKEVLTPKAWDRNGQDLTAHFTTSIPLKGNVRNLSVKIRECTGLAWEWWRTVYEKTDLPLVRKRTISIWGTTLYPQVEDKVEND
Binder B1 has a stoichiometry N [1] of 34 subunits, a stoichiometry N [2] of 34 subunits and a stoichiometry N [3] of 42 subunits.
